PMC3262814, “Purification and Activity Testing of the Full-Length YycFGHI Proteins of Staphylococcus aureus” (PLoS ONE, 2012)
Numbering of substitutions follows the chain as printed. Names and notes keep the numbering of the source. Values joined by “and” are separate entries in the source; they are usually repeats but may differ in a detail not shown here. Equal values may be shown once.

How the values were obtained:
[1] = target: YycI-C-His6 (Staphylococcus aureus SA137/93A); experiment: native gel or EMSA; blue native PAGE (BN-PAGE) of single proteins; 4-20% Tris-HCl gradient gel; 5 µg of YycF, YycH, YycI or 10 µg of YycG, YycG(Y306N) in 10 µl dialysis buffer I (50 mM NaH2PO4, 300 mM NaCl, 50% glycerol, pH 8) with Coomassie Brilliant Blue R250; 80 V, 4-7°C; masses calibrated with soluble markers and a conversion factor
[2] = target: the molecule itself; experiment: as above

YycI-C-His6 (natural protein)
stoichiometry N [1]: < 6

B1: YycG-C-His6 (enzyme, Staphylococcus aureus SA137/93A)
chain: MGMKWLKQLQSLHTKLVIVYVLLIIIGMQIIGLYFTNNLEKELLDNFKKNITQYAKQLEISIEKVYDEKGSVNAQKDIQNLLSEYANRQEIGEIRFIDKDQIIIATTKQSNRSLINQKANDSSVQKALSLGQSNDHLILKDYGGGKDRVWVYNIPVKVDKKVIGNIYIESKINDVYNQLNNINQIFIVGTAISLLITVILGFFIARTITKPITDMRNQTVEMSRGNYTQRVKIYGNDEIGELALAFNNLSKRVQEAQANTESEKRRLDSVITHMSDGIIATDRRGRIRIVNDMALKMLGMAKEDIIGYYMLSVLSLEDEFKLEEIQENNDSFLLDLNEEEGLIARVNFSTIVQETGFVTGYIAVLHDVTEQQQVERERREFVANVSHELRTPLTSMNSYIEALEEGAWKDEELAPQFLSVTREETERMIRLVNDLLQLSKMDNESDQINKEIIDFNMFINKIINRHEMSAKDTTFIRDIPKKTIFTEFDPDKMTQVFDNVITNAMKYSRGDKRVEFHVKQNPLYNRMTIRIKDNGIGIPINKVDKIFDRFYRVDKARTRKMGGTGLGLAISKEIVEAHNGRIWANSVEGQGTSIFITLPCEVIEDGDWDE
notes: two additional residues (Met-Gly) at the N-terminus, from the NcoI site placed in frame; Cloned NcoI/XhoI into pET22bΔpelB; also called WalK; VicK; source: E. coli C41(DE3) or C43(DE3) pREP4groESL(MT), purified from the membrane fraction (DDM, Ni-NTA); not shown: His6, C-terminal, kept
stoichiometry N [2]: 2 and 3 and 4

B2: YycG(Y306N)-C-His6 (enzyme)
chain: B1 chain with Y308N
notes: two additional residues (Met-Gly) at the N-terminus, from the NcoI site placed in frame; YycG (WalK/VicK) sensor histidine kinase of Staphylococcus aureus with the exchange Y306N (nucleotide exchange T916A) in the cytoplasmic PAS domain; Cloned NcoI/XhoI into pET22bΔpelB; also called mutant kinase; mutated YycG kinase; source: E. coli C41(DE3) or C43(DE3) pREP4groESL(MT), purified from the …
stoichiometry N [2]: 2 and 3 and 4
